Data: patent US20230257440A1 (published 2023)

Biological target: T1, RAS G12V (KRAS, HRAS or NRAS) peptide on HLA-DRA*01:01 / HLA-DRB1*01:01 (human)
T1 peptide: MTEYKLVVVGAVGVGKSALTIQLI
Test: cytokine release
Method: FIG. 2 is a graph showing IFN-γ secretion (spots/3e4 cells) measured by ELISPOT assay following co-culture of effector cells with target cells. […] Target cells were […] or HEK 293 cells independently transfected with one of the HLA Class II heterodimers shown. The target cells were loaded with the G12V 24-mer peptide and were cultured in the presence or absence of an antibody which blocked the respective HLA Class II molecule previously transfected. Target cells cultured with DMSO served as a negative control.
Reactivity was tested by IFNγ-secretion using ELISpot assay. […] This reactivity was blocked by an antibody which recognized the DRA*01:01/DRB1*01:01 heterodimer.

B1: 4304 TCR1 (TCR, V domains shown)
Valpha: AQRVTQPEKLLSVFKGAPVELKCNYSYSGSPELFWYVQYSRQRLQLLLRHISRESIKGFTADLNKGETSFHLKKPFAQEEDSAMYYCALLQGAQKLVFGQGTRLTINP
Vbeta: SAVISQKPSRDICQRGTSLTIQCQVDSQVTMMFWYRQQPGQSLTLIATANQGSEATYESGFVIDKFPISRPNLTFSTLTVSNMSPEDSSIYLCSVESGQDYGYTFGSGTRLTVV
binding result: recognises
